Consider two substances from patent publication US20070207532.

In data set [1] the target is AGT mutant of Example 1 (GST fusion) Lys125Ala, Ala127Thr, Arg128Ala, Asn157Gly, Ser159Glu (Homo sapiens) (UniProt P16455). As to conditions: co-purified DNA estimated by A280/A260 after purification in 50 mM phosphate, 0.1 M NaCl, 1 mM DTT.
For data set [2], the target named is PGEG-hAGT (GST fusion) Asn157Gly, Ser159Glu (Homo sapiens) (UniProt P16455). In words: inhibition. Conditions: BG-Cy3 reaction rate with 25 ug/ml DNA.
Sequence of PGEG-hAGT (GST fusion) Asn157Gly, Ser159Glu (Homo sapiens) (P16455 whole entry N157G/S159E, the tested form may be a part): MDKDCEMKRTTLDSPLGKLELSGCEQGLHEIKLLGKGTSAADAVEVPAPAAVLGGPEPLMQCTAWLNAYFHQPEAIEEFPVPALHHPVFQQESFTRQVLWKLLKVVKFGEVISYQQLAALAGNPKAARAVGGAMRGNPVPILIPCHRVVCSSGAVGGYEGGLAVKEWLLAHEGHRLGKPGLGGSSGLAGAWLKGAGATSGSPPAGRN

Sequence of AGT mutant of Example 1 (GST fusion) Lys125Ala, Ala127Thr, Arg128Ala, Asn157Gly, Ser159Glu (Homo sapiens) (P16455 whole entry K125A/A127T/R128A/N157G/S159E, the tested form may be a part): as the sequence (P16455 whole entry N157G/S159E, the tested form may be a part) above, with K125A, A127T, R128A counted along it

On to co-purified E. coli DNA, for which the binding signal in data set [1] was greater than 10 fold reduced.
As for salmon sperm DNA, the activity (fold rate reduction) in data set [2] came to 5.
